Reference: patent US20240352084A1

Columns and labels:
Conditions in all cases: ligand
[1] = molecular target: human IL-2Rα ectodomain (residues 1-217) with C-terminal biotin acceptor peptide and histidine tag, biotinylated (human) (UniProt P01589); assay: MST; pH 5
[2] = molecular target: human IL-2Rα ectodomain (residues 1-217) with C-terminal biotin acceptor peptide and histidine tag, biotinylated (human) (UniProt P01589); assay: MST; pH 7
[3] = molecular target: human IL-2Rα ectodomain (residues 1-217) with C-terminal biotin acceptor peptide and histidine tag, biotinylated (human) (UniProt P01589); assay: MST; pH 6

Chain of UniProt P01589 (P01589 other isoform, or with tags, fused parts or gaps): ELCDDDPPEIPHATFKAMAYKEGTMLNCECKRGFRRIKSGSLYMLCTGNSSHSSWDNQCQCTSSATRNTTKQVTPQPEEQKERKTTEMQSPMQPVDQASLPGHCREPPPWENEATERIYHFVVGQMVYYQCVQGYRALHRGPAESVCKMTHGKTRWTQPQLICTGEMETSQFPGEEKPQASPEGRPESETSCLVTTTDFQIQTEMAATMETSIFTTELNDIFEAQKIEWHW

Kd [1]: 0.184 µM
Kd [2]: 0.007 µM
Kd [3]: 0.09 µM
Substance: Human IL-2 wild-type (WT; residues 1-133), recombinant, C-terminal histidine tag (from UniProt P60568 21-150)
